pKd: −log10 of the molar value.

A word on the pKd: it is the negative decadic logarithm of the Kd, by convention in mol/L.

The target in assay [1] is HLA-A*02:02. Put plainly: IEDB peptide-MHC binding, purified MHC/competitive/radioactivity; filed as Kd, often an IC50 or EC50 that approximates it; ≥ and ≤ were set here for values at or beyond the usual limits of such assays.
Assay [2] concerns the target HLA-A*02:03. The assay is described as above.
Assay [3] deals with HLA-A*02:06. Described as above.
The target of assay [4] is HLA-A*26:01. The assay is described as above.
Assay [5] concerns the target HLA-A*11:01. Put plainly: IEDB peptide-MHC binding, purified MHC/direct/fluorescence; filed as Kd, often an IC50 or EC50 that approximates it; ≥ and ≤ were set here for values at or beyond the usual limits of such assays. To be noted: source organism: Influenza A virus (A/tiger/Thailand/CU-T4/04(H5N1)).
Assay [6] deals with HLA-A*03:01. Described as above. To be noted: source organism: Influenza A virus (A/tiger/Thailand/CU-T4/04(H5N1)).
Assay [7] concerns the target HLA-A*24:02. Put plainly: IEDB peptide-MHC binding, purified MHC/competitive/radioactivity; filed as Kd, often an IC50 or EC50 that approximates it; ≥ and ≤ were set here for values at or beyond the usual limits of such assays. To be noted: source organism: Dengue virus 1 Brazil/97-11/1997.
The target of assay [8] is HLA-A*23:01. The description is as above. To be noted: source organism: Dengue virus 1 Brazil/97-11/1997.
In assay [9] the target is HLA-A*30:02. The description is as above.
Assay [10] deals with HLA-A*01:01. Put plainly: IEDB peptide-MHC binding, purified MHC/direct/fluorescence; filed as Kd, often an IC50 or EC50 that approximates it; ≥ and ≤ were set here for values at or beyond the usual limits of such assays. To be noted: source organism: Human immunodeficiency virus 1.
For assay [11], the target named is HLA-A*01:01. Put plainly: IEDB peptide-MHC binding, purified MHC/competitive/radioactivity; filed as Kd, often an IC50 or EC50 that approximates it; ≥ and ≤ were set here for values at or beyond the usual limits of such assays.
In assay [12] the target is HLA-A*02:01. Put plainly: IEDB peptide-MHC binding, purified MHC/direct/fluorescence; filed as Kd, often an IC50 or EC50 that approximates it; ≥ and ≤ were set here for values at or beyond the usual limits of such assays.
Assay [13] deals with HLA-A*69:01. The description is as above. To be noted: source organism: Vibrio alginolyticus 12G01.
[14] abbreviates: source organism: Vaccinia virus WR.
[15] abbreviates: source organism: SARS coronavirus Tor2.
The mark [16] stands for this setting: source organism: Dengue virus 3 Martinique/1243/1999.
Setting [17] is: source organism: Dengue virus 2 Jamaica/1409/1983.
The mark [18] stands for this setting: source organism: Dengue virus 1 Brazil/97-11/1997.
Setting [19] is: source organism: Dengue virus 4 Philippines/H241/1956.
The mark [20] stands for this setting: source organism: Mammarenavirus machupoense.

SMSQELAEL: the pKd in assay [1] (setting [14]) was 8.40; in [2] (setting [14]), 8.12; in [3] (setting [14]) it was 6.73.
Regarding FQESFYEDIA, the pKd in assay [1] (setting [14]) was 5.59; in assay [2] (setting [14]), 6.26; in [3] (setting [14]), 6.52.
SVKYYGRST: the values for the pKd in assay [1] (setting [14]), in assay [2] (setting [14]) and in [3] (setting [14]) were 5.17, 5.94 and 4.71, respectively.
As to FVDEFYAYL, the pKd in [1] (setting [15]) is 10.05; in assay [2] (setting [15]), 8.58; in assay [3] (setting [15]) it was 9.44.
For ETLLLLGLM, the pKd in assay [4] (setting [16]) is 6.88.
Regarding NSPVFNYNK, the pKd was 6.94 in [5] and at most 4.70 in assay [6].
Take NITRLEVIGL: the pKd in assay [1] (setting [14]) was 6.04; in [2] (setting [14]), 7.02; in [3] (setting [14]) it was 6.71.
Consider TWKLARASF, for which the pKd was 6.65 in [7] and 6.66 in assay [8].
DVKKDLISY: in assay [4] (setting [17]), the negative logarithm of the Kd (pKd) is 6.43.
On to NVDIIDLLL, for which the pKd is 6.34 in assay [1] (setting [14]), 5.39 in assay [2] (setting [14]) and 7.65 in assay [3] (setting [14]).
For EKVDAIDGEY, the pKd in [4] (setting [17]) was 5.03; in assay [9] (setting [17]), 7.59.
In assay [10], NPDIVIYQY showed a pKd of at most 4.68.
On to ASVKKDLISY, for which the negative logarithm of the Kd (pKd) in [11] (setting [18]) is at most 4.42; in assay [9] (setting [18]) it was 7.71.
For the sequence AIFNNRNLAA, the pKd is 6.35 in assay [1] (setting [14]), 6.99 in assay [2] (setting [14]) and 6.11 in [3] (setting [14]).
Regarding ELEPPFGDSY, the pKd in assay [4] (setting [19]) is 5.88; in [11] (setting [19]), 6.93.
As to ENPYKTWAY, the pKd in assay [4] (setting [16]) was 5.53.
With TTNNLLEQL, the pKd is 6.91 in assay [1] (setting [14]), 5.85 in [2] (setting [14]) and 5.52 in [3] (setting [14]).
Regarding WMDLLRALI, the pKd in assay [11] (setting [19]) was 5.00.
As to AVIPFDDIV, the pKd in [1] (setting [14]) is 6.50; in [2] (setting [14]), 6.62; in assay [3] (setting [14]) it was 7.37.
Regarding ILSEKRKDTI, the figures for the pKd in assay [1] (setting [14]), in assay [2] (setting [14]) and in assay [3] (setting [14]) were at most 4.36, 6.27 and at most 4.16, respectively.
On to VVRGIDGGV, for which the pKd in assay [12] (source organism: Vibrio alginolyticus 12G01) and in assay [13] was at most 4.70 throughout.
As for DMLLNVQTLI, the pKd was 7.38 in assay [1] (setting [14]), 6.79 in assay [2] (setting [14]) and 6.54 in assay [3] (setting [14]).
GVFEGIAVL showed a pKd in [12] (source organism: Mycobacterium tuberculosis variant bovis) of 7.81.
With PMIIGEPIIV, the pKd in [1] (setting [14]) is at most 4.15; in assay [2] (setting [14]), 5.05; in assay [3] (setting [14]), at most 4.16.
The corresponding values for RVLYDEFVT are 5.66, 5.85 and 5.76.
The corresponding values for RTWKVLSIM are 4.72, 5.58 and at most 4.47.
Consider AIFNNRNLA, for which the pKd is 6.57 in [1] (setting [14]), 7.01 in assay [2] (setting [14]) and 8.15 in assay [3] (setting [14]).
Take DLTALLSCI: the values for the pKd in assay [1] (setting [14]), in [2] (setting [14]) and in [3] (setting [14]) were 5.28, 6.00 and 5.31, respectively.
The corresponding values for FISSFLLPLT are 7.41, 7.35 and 7.30.
For GLSQFTHTV, the pKd in assay [1] (setting [20]) was 8.28; in assay [2] (setting [20]), 8.12; in assay [3] (setting [20]), 6.48.
As for AVSVYGAIT, the figures for the pKd in [1] (setting [14]), in assay [2] (setting [14]) and in assay [3] (setting [14]) were 4.94, 5.02 and 4.84, respectively.
With SITEAELTGY, the pKd in [11] (setting [17]) was 6.41.
ILEYLYIMRV: the pKd in assay [1] (setting [14]) was 7.13; in assay [2] (setting [14]), 7.08; in assay [3] (setting [14]), 6.87.
VLEKKVCAI: the pKd in assay [1] (setting [14]) is 4.84; in assay [2] (setting [14]) it was 5.64; in assay [3] (setting [14]) it was 5.47.
